Results as given in paper PMC8981723.

Biological target: Human PLA2G1B (phospholipase A2 group 1B), active form (human) (UniProt P04054)

Question: With “Recombinant HIV-1 gp41 MN protein (gp41 MN (565-771Delta642-725)) (from UniProt P05877 565-771) (domain or fragment)” as the substance, how does the PLA2G1B enzymatic activity ([3H]AA release from labeled human CD4 T cells), PLA2G1B 63 nM, gp41 0.68 nM-340 nM read?
Answer: > 20 fold
